Results published in US20160097044A1, “Antimicrobial Enzyme Fusions Reduce Resistance and Kill Intracellular Staphylococcus aureus” (The United States of America, as Represented by the …, priority 2014, published 2016).

What was measured:
S. chromogenes MP02 = test: Minimum Inhibitory Concentration (MIC) assay; format: cell-based, Staphylococcus chromogenes; details: Mastitis isolate S. chromogenes MP02
S. hyicus MP01 = test: Minimum Inhibitory Concentration (MIC) assay; format: cell-based, Staphylococcus hyicus; details: Mastitis isolate S. hyicus MP01
S. warneri MP06 = test: Minimum Inhibitory Concentration (MIC) assay; format: cell-based, Staphylococcus warneri; details: Mastitis isolate S. warneri MP06
S. aureus strain Newman = test: Resistance development, plate lysis repeated exposure method; format: cell-based; details: not shown
Description: For the plate lysis assays, purified enzymes were serially diluted in saline lysis buffer (SLB; 150 mM NaCl 10 mM Tris buffer, pH 7.5) with 15% glycerol, to yield concentrations of 100, 10, 1, and 0.1 pmoles/10 μl. S. aureus Newman was cultivated in tryptic soy broth (TSB) to an OD600 nm=0.4-0.6. The bacterial cells were harvested and diluted to yield a suspension with an OD600 nm of 0.1. Tryptic soy agar (TSA) plates were flooded with 3 ml of the bacterial cell suspension. Excess culture was removed, and the plates were air dried at room temperature for ˜30 min in a laminar flow hood. 10 μl of each peptidoglycan hydrolase dilution was then spotted onto the air-dried lawn, allowed to air dry, and the culture plates incubated overnight at 37° C. The following day, plates were evaluated visually and photographed.
In the Plate lysis method, bacterial cells were scraped from a sub-lethal (not fully cleared) spot from a plate lysis assay (described above), and these ‘exposed’ cells were used to inoculate 5 ml of TSB and grown for 4-6 hours to generate a new culture and lawn for subsequent exposure. Bacteria were passaged in this assay for up to 10 consecutive days, at which time the S. aureus were tested in MIC assays. Plate lysis repeated exposure experiments were performed in duplicate.

S. aureus strain ALR = test: Rat nasal colonization model; format: in vivo, Wistar rats; details: for reduction of nasal bacterial load (in words): equimolar concentrations, intranasally twice a day on days 5, 6, 7
Description: FIGS. 1a-1c depict peptidoglycan hydrolase construct schematics, resistance development and effectiveness in eradicating S. aureus carriage in a rat colonization model. FIG. 1a is a schematic of the peptidoglycan hydrolase constructs. Domains: CHAP endopeptidase (CHAP, red box); N-acetylmuramoyl-L-alanine amidase (AMID, green box); M23 endopeptidase (PEP, blue oval); CBDs (LysK SH3b, gold diamond; lysostaphin SH3b, gold diamond with dot); protein transduction domain (PTD, blue circle); hexahistidine purification tag (His6). Domains are not to scale. Specific peptidoglycan cut sites are illustrated in FIG. 3a. FIG. 1b depicts in vitro antimicrobial resistance development. Engineered triple fusions K-L and L-K suppress antimicrobial resistance development compared to LysK (K), lysostaphin (L), or a combination of equimolar concentrations of both (L+K). Changes in Minimum Inhibitory Concentrations (MIC) are depicted as a fold-change at the tenth round of sublethal exposure compared to the first exposure, with the average fold-change of 4 replicates in red. Error bars=SEM. First exposure MICs: Lysostaphin, 0.77 μg/ml (27 nM); LysK, 47 μg/ml (840 nM); Lysostaphin and LysK (L+K) in combination 0.2 μg/ml (7 nM and 3 nM, respectively); triple fusion K-L, 7 μg/ml (97 nM); triple fusion L-K, 7.8 μg/ml (107 nM). FIG. 1c depicts reduction in colonization in a rat nasal carriage model. Rats were inoculated with S. aureus strain ALR on Day 1. After 5 days, the rats were treated twice daily for 3 days with 20 μl of a 10 mg/ml solution of each enzyme. The rat noses were excised on day 10, homogenized, and quantitative cultures were performed. Each point represents the CFU recovered from an individual rat. Bars indicate the median CFU/nose recovered from treated rats. […] Data were compiled from five independent experiments. Lyso=commercially purchased lysostaphin (AMBI, Tarrytown, N.Y.). Statistical comparisons were made with the Mann-Whitney test. SEQ ID NOs of depicted peptidoglycan hydrolase constructs: Lysostaphin (SEQ ID NO:1); Lysostaphin-PTD1-4, 6-12 (SEQ ID NOs:9, 11, 13, 15, 17, 19, 21, 23, 25, 27, 29, respectively); LysK (SEQ ID NO:3); LysK-PTD1-11 (SEQ ID NOs: 31, 33, 35, 37, 39, 41, 43, 45, 47, 49, 51, respectively); LysK-Lysostaphin Fusion K-L (SEQ ID NO:5); K-L-PTD1-4, 6-11 (SEQ ID NOs:53, 55, 57, 59, 61, 63, 65, 67, 69, 71, respectively); Lysostaphin-LysK Fusion L-K (SEQ ID NO:7).
Reduction in nasal colonization was observed when rats were challenged on day 0 with 10^7 CFU S. aureus strain ALR and then treated twice per day on days 5, 6, and 7 with 10 μl of 2% mupirocin calcium ointment (Bactroban Nasal) or petrolatum/softisan placebo. Noses from rats were homogenized and cultured quantitatively on day 10. Each point represents the CFU recovered from an individual rat, and the data were compiled from two independent experiments. Data were analyzed by the Mann-Whitney test, and horizontal lines represent median values. Mupirocin reduced colonization ˜98% compared to the placebo control.
The rat nasal colonization model is an adaptation of the mouse nasal colonization model that we described previously (Schaffer et al. 2006. Infect. Immun. 74:2145-2153). All animal experiments were conducted in accordance with a protocol approved by the appropriate Institutional Animal Care and Use Committees. Wistar rats (5 to 6 wks of age) were obtained from Charles River Laboratories (Wilmington, Mass.) and given food and water ad libitum. The animals were housed two per cage in a modified barrier facility under viral antibody-free conditions. The rats were given drinking water containing streptomycin sulfate (0.5 g/liter; Sigma) 1 day prior to bacterial inoculation and for the course of the experiment. The drinking water and cages were changed three times per week. […]

With “K-L: both LysK lytic domains fused to the N-terminus of lysostaphin; SEQ ID NO:5, protein SEQ ID NO:6” the “Minimum Inhibitory Conc. (median μg/ml)” value (S. chromogenes MP02) was 3.5 µg/mL, the “Minimum Inhibitory Conc. (median μg/ml)” value (S. hyicus MP01) was 1.8 µg/mL and the “Minimum Inhibitory Conc. (median μg/ml)” value (S. warneri MP06) was 5.3 µg/mL. For the same molecule, the “increased resistance during 10 rounds of sub-lethal exposure in plate lysis assays” value (from here on “increased resistance during 10 rounds”) (S. aureus strain Newman) was “no detectable increase in resistance” and the “reduction of nasal bacterial load (in words)” value (S. aureus strain ALR) was “unable to significantly reduce the bacterial load”.

“L: 247 amino acid mature (secreted) lysostaphin, staphylolytic bacteriocin, C-terminal His6 tag; SEQ ID NO:1 [reference compound]” was tested, and the “Minimum Inhibitory Conc. (median μg/ml)” value (S. chromogenes MP02) was 0.58 µg/mL, the “Minimum Inhibitory Conc. (median μg/ml)” value (S. hyicus MP01) was 0.29 µg/mL and the “Minimum Inhibitory Conc. (median μg/ml)” value (S. warneri MP06) was 1.5 µg/mL. For the same molecule, the “increased resistance during 10 rounds” value (S. aureus strain Newman) was 8 fold.

B1: K: 495 amino-acid staphylococcal phage K endolysin LysK, C-terminal His6 tag; SEQ ID NO:3 (protein)
chain: MAKTQAEINKRLDAYAKGTVDSPYRVKKATSYDPSFGVMEAGAIDADGYYHAQCQDLITDYVLWLTDNKVRTWGNAKDQIKQSYGTGFKIHENKPSTVPKKGWIAVFTSGSYEQWGHIGIVYDGGNTSTFTILEQNWNGYANKKPTKRVDNYYGLTHFIEIPVKAGTTVKKETAKKSASKTPAPKKKATLKVSKNHINYTMDKRGKKPEGMVIHNDAGRSSGQQYENSLANAGYARYANGIAHYYGSEGYVWEAIDAKNQIAWHTGDGTGANSGNFRFAGIEVCQSMSASDAQFLKNEQAVFQFTAEKFKEWGLTPNRKTVRLHMEFVPTACPHRSMVLHTGFNPVTQGRPSQAIMNKLKDYFIKQIKNYMDKGTSSSTVVKDGKTSSASTPATRPVTGSWKKNQYGTWYKPENATFVNGNQPIVTRIGSPFLNAPVGGNLPAGATIVYDEVCIQAGHIWIGYNAYNGNRVYCPVRTCQGVPPNQIPGVAWGVFKLEHHHHHH
modifications: C-terminal His6 tag; Phage K
For B1, the “Minimum Inhibitory Conc. (median μg/ml)” value (S. chromogenes MP02) was 16 µg/mL, the “Minimum Inhibitory Conc. (median μg/ml)” value (S. hyicus MP01) was 8.4 µg/mL and the “Minimum Inhibitory Conc. (median μg/ml)” value (S. warneri MP06) was 28 µg/mL. The “increased resistance during 10 rounds” value (S. aureus strain Newman) was 2 fold and the “reduction of nasal bacterial load (in words)” value (S. aureus strain ALR) was “unable to significantly reduce the bacterial load”.

B2: L-K: LysK lytic domains inserted between lysostaphin's M23 endopeptidase domain and SH3b cell wall binding domain; SEQ ID NO:7, protein SEQ ID NO:8 (protein)
chain: MAATHEHSAQWLNNYKKGYGYGPYPLGINGGMHYGVDFFMNIGTPVKAISSGKIVEAGWSNYGGGNQIGLIENDGVHRQWYMHLSKYNVKVGDYVKAGQIIGWSGSTGYSTAPHLHFQRMVNSFSNSTAQDPMPFLKSAGYGKAGGTVTPTPNTGLDAKTQAEINKRLDAYAKGTVDSPYRVKKATSYDPSFGVMEAGAIDADGYYHAQCQDLITDYVLWLTDNKVRTWGNAKDQIKQSYGTGFKIHENKPSTVPKKGWIAVFTSGSYEQWGHIGIVYDGGNTSTFTILEQNWNGYANKKPTKRVDNYYGLTHFIEIPVKAGTTVKKETAKKSASKTPAPKKKATLKVSKNHINYTMDKRGKKPEGMVIHNDAGRSSGQQYENSLANAGYARYANGIAHYYGSEGYVWEAIDAKNQIAWHTGDGTGANSGNFRFAGIEVCQSMSASDAQFLKNEQAVFQFTAEKFKEWGLTPNRKTVRLHMEFVPTACPHRSMVLHTGFNPVTQGRPSQAIMNKLKDYFIKQIKNYMDKGTSSSTVVKDGKTSSASLDTVTPTPNTGWKTNKYGTLYKSESASFTPNTDIITRTTGPFRSMPQSGVLKAGQTIHYDEVMKQDGHVWVGYTGNSGQRIYLPVRTWNKSTNTLGVLWGTIKLEHHHHHH
modifications: Staphylococcus simulans & Phage K
In the case of B2, the “Minimum Inhibitory Conc. (median μg/ml)” value (S. chromogenes MP02) is reported as 0.37 µg/mL, the “Minimum Inhibitory Conc. (median μg/ml)” value (S. hyicus MP01) is reported as 0.37 µg/mL and the “Minimum Inhibitory Conc. (median μg/ml)” value (S. warneri MP06) is reported as 1.5 µg/mL. The “increased resistance during 10 rounds” value (S. aureus strain Newman) was “no detectable increase in resistance”, the “decrease in CFU/nose (nasal colonization) compared to rats treated with buffer” value (S. aureus strain ALR; 200 μg intranasally twice a day on days 5, 6, 7, noses cultured day 10) was 98% and the “bacterial load reduction relative to either parental enzyme” value (S. aureus strain ALR; rat nasal decolonization model) was 5-10 fold.
